Experimental data reported in article PMC8971729 (Molecular Therapy Oncolytics, 2022).

Target: T1, human CXADR Fc chimera protein (CAR) (human, UniProt P78310)
T1 construct: also called coxsackievirus and adenovirus receptor; source: bought: R&D Systems
T1 sequence: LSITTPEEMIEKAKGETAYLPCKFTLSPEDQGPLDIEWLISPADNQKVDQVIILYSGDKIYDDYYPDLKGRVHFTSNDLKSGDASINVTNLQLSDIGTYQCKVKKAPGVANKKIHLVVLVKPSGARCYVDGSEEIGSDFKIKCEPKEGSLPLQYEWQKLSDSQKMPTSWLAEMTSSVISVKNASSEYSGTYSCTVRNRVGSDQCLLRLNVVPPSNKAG
Experiment: SPR; BIAcore 3000; DSG2-Fc, CAR-Fc and CD46-His (approximately 500 RU) coupled to a CM5 chip; knob protein injected (178 uM, 5x 1:3 dilutions; single-cycle kinetics from 200 uM); 30 uL/min, PBS, 25 °C; equilibrium KD assuming 1:1 Langmuir binding
Conditions: both partners purified

B1: HAdV-C5 fiber knob protein (domain or fragment)
chain: KNNDKLTLWTTPAPSPNCRLNAEKDAKLTLVLTKCGSQILATVSVLAVKGSLAPISGTVQSAHLIIRFDENGVLLNNSFLDPEYWNFRNGDLTEGTAYTNAVGFMPNLSAYPKSHGKTAKSNIVSQVYLNGDKTKPVTLTITLNGTQETGDTTPSAYSMSFSWDWSGHNYINEIFATSSYTFSYIAQE
notes: source: supplemental methods
  Kd: 0.76 nM
